Among the data in the supplement of paper PMC10567573 are protein stability index values, retold here.

First the molecules themselves.
B1: SLC19A2 (parent)
chain: FHHIPSTCQRVNGIKVQNGGIVTD
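Note: lentivirally expressed fusions sorted by FACS into six bins by GFP to DsRed ratio, PSI derived from sequencing read proportions per bin multiplied by bin number.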

The data set covers variants of B1. Description: protein stability index of a GFP-peptide fusion (GPS, HEK-293T) (PSI 1-6); higher = more stable. Conditions: c terminus: a fixed tail appended.
FHHIPSTCQRVNVIKVQNGGIVTD [G13V]: the protein stability index stood at 1.73.
With FHHIPSTCQRVNFIKVQNGGIVTD [G13F], the protein stability index was 1.71.
The figure for FHHIPSTCQRVNYIKVQNGGIVTD [G13Y] is 2.19; for FHHIPSTCQRVNEIKVQNGGIVTD [G13E] it is 2.13; for FHHIPSTCQRVNQIKVQNGGIVTD [G13Q] it is 2.73.
Next, FHHIPSTCQRVNIIKVQNGGIVTD [G13I]: 1.75; FHHIPSTCQRVNDIKVQNGGIVTD [G13D]: 2; FHHIPSTCQRVNPIKVQNGGIVTD [G13P]: 1.85.
Consider FHHIPSTCQRVNHIKVQNGGIVTD [G13H], for which the protein stability index came out at 1.64.
Next, FHHIPSTCQRVNMIKVQNGGIVTD [G13M]: 2.08; FHHIPSTCQRVNTIKVQNGGIVTD [G13T]: 2.28; FHHIPSTCQRVNNIKVQNGGIVTD [G13N]: 2.01.
As for FHHIPSTCQRVNCIKVQNGGIVTD [G13C], the protein stability index was determined as 1.89.
The figure for FHHIPSTCQRVNKIKVQNGGIVTD [G13K] is 2.5; for FHHIPSTCQRVNAIKVQNGGIVTD [G13A] it is 1.77; for FHHIPSTCQRVNLIKVQNGGIVTD [G13L] it is 1.58.
Next, FHHIPSTCQRVNRIKVQNGGIVTD [G13R]: 2.21; FHHIPSTCQRVNSIKVQNGGIVTD [G13S]: 1.97; FHHIPSTCQRVNGICVQNGGIVTD [K15C]: 2.2.
FHHIPSTCQRVNGINVQNGGIVTD [K15N]: the protein stability index worked out at 2.05.
The figure for FHHIPSTCQRVNGIMVQNGGIVTD [K15M] is 1.64; for FHHIPSTCQRVNGIPVQNGGIVTD [K15P] it is 2.33.
Regarding FHHIPSTCQRVNGILVQNGGIVTD [K15L], the protein stability index stood at 2.15.
Next, FHHIPSTCQRVNGIRVQNGGIVTD [K15R]: 2.2; FHHIPSTCQRVNGITVQNGGIVTD [K15T]: 2.19; FHHIPSTCQRVNGIYVQNGGIVTD [K15Y]: 2.47.
Next, FHHIPSTCQRVNGIEVQNGGIVTD [K15E]: 2.22.
The figure for FHHIPSTCQRVNGIAVQNGGIVTD [K15A] is 1.91; for FHHIPSTCQRVNGIGVQNGGIVTD [K15G] it is 2.38; for FHHIPSTCQRVNGIQVQNGGIVTD [K15Q] it is 2.47.
Consider FHHIPSTCQRVNGISVQNGGIVTD [K15S], for which the protein stability index stood at 2.24.
For FHHIPSTCQRVNGIFVQNGGIVTD [K15F], the protein stability index was 2.49.
Next, FHHIPSTCQRVNGIHVQNGGIVTD [K15H]: 2.37; FHHIPSTCQRVNGIIVQNGGIVTD [K15I]: 2.14.
As to FHHIPSTCQRVNGIVVQNGGIVTD [K15V], the protein stability index was 2.14.
As for FHHIPSTCQRVNGIDVQNGGIVTD [K15D], the protein stability index was determined as 2.57.
For the variant FHHIPSTCQRVPGIKVQNGGIVTD [N12P], the protein stability index is 2.05.
FHHIPSTCQRVFGIKVQNGGIVTD [N12F]: the protein stability index was found to be 1.74.
For FHHIPSTCQRVTGIKVQNGGIVTD [N12T], the protein stability index turned out to be 1.78.
Next, FHHIPSTCQRVYGIKVQNGGIVTD [N12Y]: 1.78.
The figure for FHHIPSTCQRVDGIKVQNGGIVTD [N12D] is 2.86; for FHHIPSTCQRVGGIKVQNGGIVTD [N12G] it is 2.07; for FHHIPSTCQRVWGIKVQNGGIVTD [N12W] it is 1.01.
The figure for FHHIPSTCQRVQGIKVQNGGIVTD [N12Q] is 2.43.
On to FHHIPSTCQRVHGIKVQNGGIVTD [N12H], for which the protein stability index is 1.89.
The figure for FHHIPSTCQRVCGIKVQNGGIVTD [N12C] is 1.84; for FHHIPSTCQRVSGIKVQNGGIVTD [N12S] it is 2.36; for FHHIPSTCQRVEGIKVQNGGIVTD [N12E] it is 2.04.
FHHIPSTCQRVLGIKVQNGGIVTD [N12L]: the protein stability index came to 2.1.
Next, FHHIPSTCQRVKGIKVQNGGIVTD [N12K]: 2.22; FHHIPSTCQRVAGIKVQNGGIVTD [N12A]: 1.84; FHHIPSTCQRVRGIKVQNGGIVTD [N12R]: 2.47.
Next, FHHIPSTCQRVVGIKVQNGGIVTD [N12V]: 1.82; FHHIPSTCQRVIGIKVQNGGIVTD [N12I]: 1.42.
On to FHHIPSTCQTVNGIKVQNGGIVTD [R10T], for which the protein stability index was determined as 1.99.
For the variant FHHIPSTCQCVNGIKVQNGGIVTD [R10C], the protein stability index is 2.36.
The figure for FHHIPSTCQNVNGIKVQNGGIVTD [R10N] is 1.6; for FHHIPSTCQMVNGIKVQNGGIVTD [R10M] it is 1.67.
The figure for FHHIPSTCQSVNGIKVQNGGIVTD [R10S] is 1.89; for FHHIPSTCQHVNGIKVQNGGIVTD [R10H] it is 2.5.
Consider FHHIPSTCQFVNGIKVQNGGIVTD [R10F], for which the protein stability index came out at 1.7.
Next, FHHIPSTCQKVNGIKVQNGGIVTD [R10K]: 1.91; FHHIPSTCQDVNGIKVQNGGIVTD [R10D]: 2.65; FHHIPSTCQEVNGIKVQNGGIVTD [R10E]: 2.46.
The figure for FHHIPSTCQQVNGIKVQNGGIVTD [R10Q] is 1.87.
Next, FHHIPSTCQIVNGIKVQNGGIVTD [R10I]: 1.98; FHHIPSTCQGVNGIKVQNGGIVTD [R10G]: 2.23.
For FHHIPSTCQYVNGIKVQNGGIVTD [R10Y], the protein stability index was found to be 2.07.
The figure for FHHIPSTCQLVNGIKVQNGGIVTD [R10L] is 2.46; for FHHIPSTCQVVNGIKVQNGGIVTD [R10V] it is 2.46; for FHHIPSTCQWVNGIKVQNGGIVTD [R10W] it is 2.97.
For the variant FHHIPSTCQPVNGIKVQNGGIVTD [R10P], the protein stability index worked out at 1.78.
Next, FHHIPSTCQAVNGIKVQNGGIVTD [R10A]: 1.81.
The figure for FHHIPSTCQRCNGIKVQNGGIVTD [V11C] is 1.49; for FHHIPSTCQRNNGIKVQNGGIVTD [V11N] it is 2.49.
In the case of FHHIPSTCQRPNGIKVQNGGIVTD [V11P], the protein stability index came out at 2.54.
Next, FHHIPSTCQRQNGIKVQNGGIVTD [V11Q]: 2.48.
Next, FHHIPSTCQRKNGIKVQNGGIVTD [V11K]: 2.11.
In the case of FHHIPSTCQRLNGIKVQNGGIVTD [V11L], the protein stability index worked out at 1.59.
The figure for FHHIPSTCQRYNGIKVQNGGIVTD [V11Y] is 2.09; for FHHIPSTCQRTNGIKVQNGGIVTD [V11T] it is 2.04.
The figure for FHHIPSTCQRANGIKVQNGGIVTD [V11A] is 2.25; for FHHIPSTCQRSNGIKVQNGGIVTD [V11S] it is 1.93.
On to FHHIPSTCQRMNGIKVQNGGIVTD [V11M], for which the protein stability index worked out at 2.26.
Next, FHHIPSTCQRDNGIKVQNGGIVTD [V11D]: 2.42; FHHIPSTCQRRNGIKVQNGGIVTD [V11R]: 3.19; FHHIPSTCQRWNGIKVQNGGIVTD [V11W]: 1.44.
On to FHHIPSTCQRHNGIKVQNGGIVTD [V11H], for which the protein stability index is 1.83.
As for FHHIPSTCQRINGIKVQNGGIVTD [V11I], the protein stability index was determined as 2.43.
The figure for FHHIPSTCQRFNGIKVQNGGIVTD [V11F] is 1.81; for FHHIPSTCQRENGIKVQNGGIVTD [V11E] it is 2.08.
Next, FHHIPSTCQRGNGIKVQNGGIVTD [V11G]: 2.19; FHHIPSTCQRVNGTKVQNGGIVTD [I14T]: 2.17.
FHHIPSTCQRVNGMKVQNGGIVTD [I14M]: the protein stability index was 2.23.
